Source: publication PMC3164694

Target: gelatin layer (gelatin coated glass coverslips)
Assay: not stated; unpublished data (Collier and Goldberg); affinity for gelatin

## MMP-9 pro-enzyme homo-dimer (complex)
  fold higher affinity of the dimer for gelatin: 10 fold
